Reference: PMC5279944

Assays:
[1] = molecular target: plasma fibronectin purified from Fn1^syn/syn mice (pFN^syn) (mouse)
[2] = molecular target: plasma fibronectin purified from Fn1^syn/syn mice (pFN^syn) (mouse); remark: listed apart in the source
[3] = molecular target: plasma fibronectin purified from Fn1^syn/syn mice (pFN^syn) (mouse); remark: listed apart in the source
[4] = molecular target: plasma fibronectin purified from Fn1^syn/syn mice (pFN^syn) (mouse); test: cross-linking; serum-starved Fn1-KO fibroblasts seeded (15, 30 and 60 min) on pFN-coated glass coverslips, spun or not spun; 1 mM DTSSP 15 min at 4°C; cross-linked fraction released with 25 mM DTT, α5 integrin western blot; cross-linked over total integrin

| Substance | adhesion strength (τ50, spinning disk) of Fn1-KO cells on pFN^syn compared to pFN^wt [1] | pY397-FAK level in Fn1-KO cells plated on pFN^syn compared to pFN^wt [2] | mean spreading area of Itgb3^-/- platelets seeded for 60 min on pFN^syn [3] | α5 integrin crosslinked to FN, percent of that on pFN^wt [4] | adhesion of wild-type platelets under shear flow (1000/s, 10 min), pFN^syn compared to pFN^wt (fold reduction) [3] |
| --- | --- | --- | --- | --- | --- |
| α5β1 integrin, endogenous on mouse cells (Fn1-KO fibroblasts) (from UniProt P11688 45-1053; P09055 21-798) (receptor) | 16 % decrease | 54 % decrease | 3.8 μm^2 | 60% | – |
| αIIbβ3 integrin on mouse platelets (from UniProt Q9QUM0 32-1033; O54890 26-787) (receptor) | – | – | – | – | 10 |
